Laboratory results as given in article PMC5737387 (Nucleic Acids Research, 2017).
Each block holds one molecule with its values, some of them ahead of it.

Experiments:
[1] = molecular target: p44ct(368–534) (Chaetomium thermophilum); assay: ITC
[2] = molecular target: full length p44hs (Homo sapiens, UniProt Q13888 1-395); assay: co-IP
full length p44hs, sequence (Q13888 whole entry): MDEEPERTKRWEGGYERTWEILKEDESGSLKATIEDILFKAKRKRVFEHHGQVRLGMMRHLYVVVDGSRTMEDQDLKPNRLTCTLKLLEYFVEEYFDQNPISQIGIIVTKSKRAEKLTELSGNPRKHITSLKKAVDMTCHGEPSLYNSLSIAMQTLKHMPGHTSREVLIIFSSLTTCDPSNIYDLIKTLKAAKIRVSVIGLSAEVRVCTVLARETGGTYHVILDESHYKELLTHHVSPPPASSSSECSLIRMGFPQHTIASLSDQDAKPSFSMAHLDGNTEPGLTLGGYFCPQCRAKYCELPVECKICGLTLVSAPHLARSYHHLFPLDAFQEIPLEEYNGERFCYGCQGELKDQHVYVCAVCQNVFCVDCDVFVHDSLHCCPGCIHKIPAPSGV

- Kd [1]: 11 nM
- dH [1]: -25 kcal/mol
- stoichiometry N [1]: 0.71
Molecule: p34ct(1–277) (domain or fragment)

- binding result [2]: binds
B1: full length p34hs (natural protein)
chain: MVSDEDELNLLVIVVDANPIWWGKQALKESQFTLSKCIDAVMVLGNSHLFMNRSNKLAVIASHIQESRFLYPGKNGRLGDFFGDPGNPPEFNPSGSKDGKYELLTSANEVIVEEIKDLMTKSDIKGQHTETLLAGSLAKALCYIHRMNKEVKDNQEMKSRILVIKAAEDSALQYMNFMNVIFAAQKQNILIDACVLDSDSGLLQQACDITGGLYLKVPQMPSLLQYLLWVFLPDQDQRSQLILPPPVHVDYRAACFCHRNLIEIGYVCSVCLSIFCNFSPICTTCETAFKISLPPVLKAKKKKLKVSA
